Values of other authors, collected in publication PMC8592953.
Like-named read-outs stand apart in the source and are kept apart here.

Key:
[1] = molecular target: RAGE (soluble) soluble (Homo sapiens) (UniProt Q15109)
[2] = molecular target: RAGE (soluble) soluble (Homo sapiens) (UniProt Q15109); remark: listed apart in the source

Chain of UniProt Q15109 (Q15109 23-342): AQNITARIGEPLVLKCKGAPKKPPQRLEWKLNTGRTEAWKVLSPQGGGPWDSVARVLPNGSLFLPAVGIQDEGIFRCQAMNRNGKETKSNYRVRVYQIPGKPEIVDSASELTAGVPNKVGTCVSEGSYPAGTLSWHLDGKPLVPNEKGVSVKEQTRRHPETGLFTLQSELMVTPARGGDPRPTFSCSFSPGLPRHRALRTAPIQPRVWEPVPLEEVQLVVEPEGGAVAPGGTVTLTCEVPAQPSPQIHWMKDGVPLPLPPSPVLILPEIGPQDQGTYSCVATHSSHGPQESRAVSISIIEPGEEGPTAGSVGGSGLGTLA

Row | Kd [1] | Kd [2] | Substance
1 | 1000 nM | – | AGE-modified bovine serum albumin (BSA-AGE) (from UniProt P02769)
2 | – | 100 nM | glyoxylic acid-glycated bovine serum albumin (from UniProt P02769)
